Reference: patent publication US20240141072A1 (published 2024)

What was measured:
Assay in all cases: Octet BLI; biotinylated huDLL3-IgG1 fusion on streptavidin tips; single 50 nM trispecific, conditioned medium
[1] = target: T1, anti-DLL3 trispecific protein with DLL3 binding domain 42F08
T1 construct: trispecific, one chain
Protocol: (§1) Using the conditioned medium with known concentrations of the anti-DLL3 trispecific proteins, the relative binding affinities of the anti-DLL3 trispecific proteins toward human DLL3 protein were measured using a method where biotinylated version of human DLL3 protein were expressed as a human IgG1 fusion protein, and the binding affinity measurement was carried out in an Octet instrument with streptavidin tips.

[2] = target: T2, anti-DLL3 trispecific protein with DLL3 binding domain 42E01
T2 construct: trispecific, one chain
Protocol: as §1

[3] = target: T3, anti-DLL3 trispecific protein with DLL3 binding domain 42E02
T3 construct: trispecific, one chain
Protocol: as §1

[4] = target: T4, anti-DLL3 trispecific protein with DLL3 binding domain 51G10
T4 construct: trispecific, one chain
Protocol: as §1

[5] = target: T5, anti-DLL3 trispecific protein with DLL3 binding domain 51B01
T5 construct: trispecific, one chain
Protocol: as §1

[6] = target: T6, anti-DLL3 trispecific protein with DLL3 binding domain 51G04
T6 construct: trispecific, one chain
Protocol: as §1

[7] = target: T7, anti-DLL3 trispecific protein with DLL3 binding domain 42G07
T7 construct: trispecific, one chain
Protocol: as §1

[8] = target: T8, anti-DLL3 trispecific protein with DLL3 binding domain 41E02
T8 construct: trispecific, one chain
Protocol: as §1

[9] = target: T9, anti-DLL3 trispecific protein with DLL3 binding domain 53B06
T9 construct: trispecific, one chain
Protocol: as §1

[10] = target: T10, anti-DLL3 trispecific protein with DLL3 binding domain 51E02
T10 construct: trispecific, one chain
Protocol: as §1

[11] = target: T11, anti-DLL3 trispecific protein with DLL3 binding domain 42D08
T11 construct: trispecific, one chain
Protocol: as §1

[12] = target: T12, anti-DLL3 trispecific protein with DLL3 binding domain 42H11
T12 construct: trispecific, one chain
Protocol: as §1

[13] = target: T13, anti-DLL3 trispecific protein with DLL3 binding domain 42B10
T13 construct: trispecific, one chain
Protocol: as §1

[14] = target: T14, anti-DLL3 trispecific protein with DLL3 binding domain 51B04
T14 construct: trispecific, one chain
Protocol: as §1

[15] = target: T15, anti-DLL3 trispecific protein with DLL3 binding domain 51G02
T15 construct: trispecific, one chain; also called 51G2
Protocol: as §1

[16] = target: T16, anti-DLL3 trispecific protein with DLL3 binding domain 42C01
T16 construct: trispecific, one chain
Protocol: as §1

[17] = target: T17, anti-DLL3 trispecific protein with DLL3 binding domain 41F07
T17 construct: trispecific, one chain
Protocol: as §1

[18] = target: T18, anti-DLL3 trispecific protein with DLL3 binding domain 41B11
T18 construct: trispecific, one chain
Protocol: as §1

[19] = target: T19, anti-DLL3 trispecific protein with DLL3 binding domain 42B06
T19 construct: trispecific, one chain
Protocol: as §1

[20] = target: T20, anti-DLL3 trispecific protein with DLL3 binding domain 51A01
T20 construct: trispecific, one chain
Protocol: as §1

[21] = target: T21, anti-DLL3 trispecific protein with DLL3 binding domain 54B05
T21 construct: trispecific, one chain
Protocol: as §1

[22] = target: T22, anti-DLL3 trispecific protein with DLL3 binding domain 42C08
T22 construct: trispecific, one chain
Protocol: as §1

[23] = target: T23, anti-DLL3 trispecific protein with DLL3 binding domain 42F01
T23 construct: trispecific, one chain
Protocol: as §1

[24] = target: T24, anti-DLL3 trispecific protein with DLL3 binding domain 52D04
T24 construct: trispecific, one chain; same domain order as the TAC protein m79; also called 52D4
Protocol: as §1

[25] = target: T25, anti-DLL3 trispecific protein with DLL3 binding domain 41G01
T25 construct: trispecific, one chain
Protocol: as §1

[26] = target: T26, anti-DLL3 trispecific protein with DLL3 binding domain 51F04
T26 construct: trispecific, one chain
Protocol: as §1

[27] = target: T27, anti-DLL3 trispecific protein with DLL3 binding domain 51F02
T27 construct: trispecific, one chain
Protocol: as §1

T4 sequence (chain, as listed by the source): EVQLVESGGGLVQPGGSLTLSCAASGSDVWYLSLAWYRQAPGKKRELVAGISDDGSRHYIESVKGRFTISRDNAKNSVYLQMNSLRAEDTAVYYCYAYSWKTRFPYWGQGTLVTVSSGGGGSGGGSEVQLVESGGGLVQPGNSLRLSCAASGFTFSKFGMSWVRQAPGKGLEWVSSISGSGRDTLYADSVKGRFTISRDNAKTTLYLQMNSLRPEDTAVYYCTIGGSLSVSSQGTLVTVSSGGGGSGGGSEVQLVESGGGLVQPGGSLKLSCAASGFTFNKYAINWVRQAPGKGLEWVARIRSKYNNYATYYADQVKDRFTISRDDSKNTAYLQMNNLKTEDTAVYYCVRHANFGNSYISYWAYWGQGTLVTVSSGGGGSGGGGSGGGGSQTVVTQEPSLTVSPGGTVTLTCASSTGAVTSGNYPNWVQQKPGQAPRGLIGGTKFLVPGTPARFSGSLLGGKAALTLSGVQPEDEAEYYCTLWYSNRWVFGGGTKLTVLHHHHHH
T10 sequence (chain, as listed by the source): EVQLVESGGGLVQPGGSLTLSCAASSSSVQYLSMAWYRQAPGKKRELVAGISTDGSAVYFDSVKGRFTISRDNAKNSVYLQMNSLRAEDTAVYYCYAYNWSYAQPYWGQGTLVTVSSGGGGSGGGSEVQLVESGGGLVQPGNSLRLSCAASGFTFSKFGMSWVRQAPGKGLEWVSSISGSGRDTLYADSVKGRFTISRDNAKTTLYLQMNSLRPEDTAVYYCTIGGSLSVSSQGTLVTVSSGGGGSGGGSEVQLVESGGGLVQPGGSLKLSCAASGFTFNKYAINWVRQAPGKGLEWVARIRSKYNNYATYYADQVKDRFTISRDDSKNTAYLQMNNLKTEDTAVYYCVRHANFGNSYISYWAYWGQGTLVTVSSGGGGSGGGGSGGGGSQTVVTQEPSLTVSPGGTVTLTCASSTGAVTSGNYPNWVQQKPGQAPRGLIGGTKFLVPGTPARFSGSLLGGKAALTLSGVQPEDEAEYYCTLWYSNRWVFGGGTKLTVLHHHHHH
T8 sequence (chain, as listed by the source): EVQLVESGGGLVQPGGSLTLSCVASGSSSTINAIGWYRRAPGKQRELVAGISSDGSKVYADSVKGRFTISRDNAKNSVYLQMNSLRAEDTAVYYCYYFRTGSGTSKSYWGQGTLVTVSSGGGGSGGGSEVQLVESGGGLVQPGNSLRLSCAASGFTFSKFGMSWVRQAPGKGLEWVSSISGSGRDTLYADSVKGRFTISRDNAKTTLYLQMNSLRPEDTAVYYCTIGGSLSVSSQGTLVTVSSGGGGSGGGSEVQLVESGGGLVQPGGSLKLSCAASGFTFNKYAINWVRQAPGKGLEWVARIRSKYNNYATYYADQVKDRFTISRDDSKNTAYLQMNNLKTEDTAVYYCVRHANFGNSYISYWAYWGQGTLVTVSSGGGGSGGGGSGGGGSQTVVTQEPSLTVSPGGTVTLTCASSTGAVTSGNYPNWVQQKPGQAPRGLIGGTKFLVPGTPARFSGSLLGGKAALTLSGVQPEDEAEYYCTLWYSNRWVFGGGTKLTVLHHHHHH
T25 sequence (chain, as listed by the source): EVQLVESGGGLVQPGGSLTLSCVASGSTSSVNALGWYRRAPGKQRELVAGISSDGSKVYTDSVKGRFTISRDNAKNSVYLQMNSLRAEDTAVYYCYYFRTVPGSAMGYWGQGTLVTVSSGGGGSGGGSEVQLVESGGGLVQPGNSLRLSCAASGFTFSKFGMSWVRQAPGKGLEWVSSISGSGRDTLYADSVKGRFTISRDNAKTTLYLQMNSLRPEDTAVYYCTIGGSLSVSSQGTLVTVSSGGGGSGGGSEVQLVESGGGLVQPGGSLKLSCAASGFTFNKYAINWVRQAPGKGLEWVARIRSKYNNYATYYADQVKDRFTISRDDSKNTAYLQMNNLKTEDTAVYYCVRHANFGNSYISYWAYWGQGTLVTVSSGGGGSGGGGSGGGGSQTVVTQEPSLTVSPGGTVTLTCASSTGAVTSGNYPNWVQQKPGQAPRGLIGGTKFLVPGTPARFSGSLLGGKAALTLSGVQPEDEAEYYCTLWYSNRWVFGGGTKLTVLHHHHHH
T20 sequence (chain, as listed by the source): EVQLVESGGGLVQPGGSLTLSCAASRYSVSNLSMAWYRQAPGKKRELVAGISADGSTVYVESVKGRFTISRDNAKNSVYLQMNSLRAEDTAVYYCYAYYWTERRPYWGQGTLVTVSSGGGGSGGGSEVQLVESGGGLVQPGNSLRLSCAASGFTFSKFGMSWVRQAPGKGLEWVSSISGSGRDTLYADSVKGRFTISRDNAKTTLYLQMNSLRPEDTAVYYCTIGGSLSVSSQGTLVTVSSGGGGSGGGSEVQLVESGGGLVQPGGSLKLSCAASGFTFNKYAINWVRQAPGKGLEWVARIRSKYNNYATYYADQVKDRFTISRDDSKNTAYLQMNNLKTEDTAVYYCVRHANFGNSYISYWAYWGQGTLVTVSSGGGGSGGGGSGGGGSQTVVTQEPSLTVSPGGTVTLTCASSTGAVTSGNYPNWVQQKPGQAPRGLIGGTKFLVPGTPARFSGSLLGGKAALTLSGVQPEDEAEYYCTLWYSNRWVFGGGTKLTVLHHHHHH
T5 sequence (chain, as listed by the source): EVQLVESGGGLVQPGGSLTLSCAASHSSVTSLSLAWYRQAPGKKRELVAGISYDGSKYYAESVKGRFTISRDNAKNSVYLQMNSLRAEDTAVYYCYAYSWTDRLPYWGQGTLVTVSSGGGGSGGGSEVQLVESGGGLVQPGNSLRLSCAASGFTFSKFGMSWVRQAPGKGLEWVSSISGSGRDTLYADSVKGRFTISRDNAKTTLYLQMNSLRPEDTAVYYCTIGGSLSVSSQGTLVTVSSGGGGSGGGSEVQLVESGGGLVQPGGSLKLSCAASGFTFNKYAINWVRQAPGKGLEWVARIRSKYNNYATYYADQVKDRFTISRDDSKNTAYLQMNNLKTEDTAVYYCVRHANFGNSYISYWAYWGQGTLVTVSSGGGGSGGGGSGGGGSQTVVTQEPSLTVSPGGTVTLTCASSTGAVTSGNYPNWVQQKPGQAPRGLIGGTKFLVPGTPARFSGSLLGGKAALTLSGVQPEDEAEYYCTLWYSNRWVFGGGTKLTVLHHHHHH
T18 sequence (chain, as listed by the source): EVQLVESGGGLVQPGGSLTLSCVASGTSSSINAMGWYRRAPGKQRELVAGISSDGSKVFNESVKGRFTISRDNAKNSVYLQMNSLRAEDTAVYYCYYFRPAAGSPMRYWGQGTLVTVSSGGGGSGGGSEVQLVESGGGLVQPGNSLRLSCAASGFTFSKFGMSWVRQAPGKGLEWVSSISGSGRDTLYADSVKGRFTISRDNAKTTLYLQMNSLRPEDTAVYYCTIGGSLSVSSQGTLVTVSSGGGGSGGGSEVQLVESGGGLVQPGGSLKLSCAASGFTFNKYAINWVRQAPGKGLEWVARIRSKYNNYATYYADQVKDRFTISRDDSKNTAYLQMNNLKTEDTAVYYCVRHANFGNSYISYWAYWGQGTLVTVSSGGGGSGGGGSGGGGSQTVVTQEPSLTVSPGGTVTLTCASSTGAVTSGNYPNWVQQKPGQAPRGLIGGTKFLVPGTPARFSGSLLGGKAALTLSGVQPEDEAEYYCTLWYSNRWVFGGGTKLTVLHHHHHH
T9 sequence (chain, as listed by the source): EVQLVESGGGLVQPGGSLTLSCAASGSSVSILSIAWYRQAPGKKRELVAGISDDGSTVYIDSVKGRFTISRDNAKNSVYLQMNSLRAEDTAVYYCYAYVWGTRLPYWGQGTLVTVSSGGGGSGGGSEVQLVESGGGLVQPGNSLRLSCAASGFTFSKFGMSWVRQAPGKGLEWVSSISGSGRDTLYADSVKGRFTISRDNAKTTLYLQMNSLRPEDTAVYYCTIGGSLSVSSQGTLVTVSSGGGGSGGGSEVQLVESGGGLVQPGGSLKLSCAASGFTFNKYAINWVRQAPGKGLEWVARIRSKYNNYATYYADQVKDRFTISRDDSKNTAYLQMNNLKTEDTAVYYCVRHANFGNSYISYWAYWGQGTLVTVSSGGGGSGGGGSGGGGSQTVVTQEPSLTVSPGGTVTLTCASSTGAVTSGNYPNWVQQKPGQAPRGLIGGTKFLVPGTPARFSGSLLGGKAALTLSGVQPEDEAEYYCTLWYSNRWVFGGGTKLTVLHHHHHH
T23 sequence (chain, as listed by the source): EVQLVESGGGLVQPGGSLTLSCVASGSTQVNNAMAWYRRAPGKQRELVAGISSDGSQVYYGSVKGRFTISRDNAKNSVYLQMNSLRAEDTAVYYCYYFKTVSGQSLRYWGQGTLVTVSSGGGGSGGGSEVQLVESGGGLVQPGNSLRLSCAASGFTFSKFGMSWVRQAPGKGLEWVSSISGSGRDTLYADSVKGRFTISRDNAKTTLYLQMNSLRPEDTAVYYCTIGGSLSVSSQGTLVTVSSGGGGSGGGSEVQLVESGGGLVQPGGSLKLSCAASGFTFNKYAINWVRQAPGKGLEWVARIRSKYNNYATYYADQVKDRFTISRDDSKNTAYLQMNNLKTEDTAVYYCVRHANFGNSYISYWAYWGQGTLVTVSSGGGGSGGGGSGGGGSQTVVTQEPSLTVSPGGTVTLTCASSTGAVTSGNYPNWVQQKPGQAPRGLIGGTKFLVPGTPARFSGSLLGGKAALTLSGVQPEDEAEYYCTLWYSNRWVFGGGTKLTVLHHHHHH

B1: biotinylated human DLL3 protein expressed as a human IgG1 fusion protein (Fc fusion, not shown: a dimerising Fc or GST)
chain: AGVFELQIHSFGPGPGPGAPRSPCSARLPCRLFFRVCLKPGLSEEAAESPCALGAALSARGPVYTEQPGAPAPDLPLPDGLLQVPFRDAWPGTFSFIIETWREELGDQIGGPAWSLLARVAGRRRLAAGGPWARDIQRAGAWELRFSYRARCEPPAVGTACTRLCRPRSAPSRCGPGLRPCAPLEDECEAPLVCRAGCSPEHGFCEQPGECRCLEGWTGPLCTVPVSTSSCLSPRGPSSATTGCLVPGPGPCDGNPCANGGSCSETPRSFECTCPRGFYGLRCEVSGVTCADGPCFNGGLCVGGADPDSAYICHCPPGFQGSNCEKRVDRCSLQPCRNGGLCLDLGHALRCRCRAGFAGPRCEHDLDDCAGRACANGGTCVEGGGAHRCSCALGFGGRDCRERADPCAARPCAHGGRCYAHFSGLVCACAPGYMGARCEFPVHPDGASALPAAPPGLRPGDPQRYL
modifications: biotinylated
- Kd [1]: 3.2 nM
- Kd [2]: 4 nM
- Kd [3]: 2.9 nM
- Kd [4]: 0.6 nM
- Kd [5]: 1.6 nM
- Kd [6]: 21 nM
- Kd [7]: 1.3 nM
- Kd [8]: 3.4 nM
- Kd [9]: 0.71 nM
- Kd [10]: 3.5 nM
- Kd [11]: 1.3 nM
- Kd [12]: 3.1 nM
- Kd [13]: 1.3 nM
- Kd [14]: 16 nM
- Kd [15]: 1.3 nM
- Kd [16]: 3.6 nM
- Kd [17]: 25 nM
- Kd [18]: 9.9 nM
- Kd [19]: 3.2 nM
- Kd [20]: 0.92 nM
- Kd [21]: 0.76 nM
- Kd [22]: 1.8 nM
- Kd [23]: 5.5 nM
- Kd [24]: 0.5 nM
- Kd [25]: 4 nM
- Kd [26]: 6.7 nM
- Kd [27]: 2.4 nM
